In patent US20170037089A1 (IMMATICS BIOTECHNOLOGIES, published 2017):

biological target: T1, HLA-A*02 (peptide-receptive MHC class I monomer after UV-ligand exchange) (human); test: UV-ligand exchange, b2m ELISA; peptide exchange yield grade (>=10% +; >=20% ++; >=50 +++; >=75% ++++)
T1 construct: also called HLA-A*02:01; HLA-A*0201
Excerpt: Candidate peptides for T cell based therapies according to the present invention were further tested for their MHC binding capacity (affinity). The individual peptide-MHC complexes were produced by UV-ligand exchange, where a UV-sensitive peptide is cleaved upon UV-irradiation, and exchanged with the peptide of interest as analyzed. Only peptide candidates that can effectively bind and stabilize the peptide-receptive MHC molecules prevent dissociation of the MHC complexes. To determine the yield of the exchange reaction, an ELISA was performed based on the detection of the light chain (β2m) of stabilized MHC complexes. The assay was performed as generally described in Rodenko et al. (Rodenko et al., 2006).
96 well MAXISorp plates (NUNC) were coated over night with 2 ug/ml streptavidin in PBS at room temperature, washed 4× and blocked for 1 h at 37° C. in 2% BSA containing blocking buffer. Refolded HLA-A*02:01/MLA-001 monomers served as standards, covering the range of 15-500 ng/ml. Peptide-MHC monomers of the UV-exchange reaction were diluted 100 fold in blocking buffer. Samples were incubated for 1 h at 37° C., washed four times, incubated with 2 ug/ml HRP conjugated anti-32m for 1 h at 37° C., washed again and detected with TMB solution that is stopped with […]. Absorption was measured at 450 nm. Candidate peptides that show a high exchange yield (preferably higher than 50%, most preferred higher than 75%) are generally preferred for a generation and production of antibodies or fragments thereof, and/or T cell receptors or fragments thereof, as they show sufficient avidity to the MHC molecules and prevent dissociation of the MHC complexes.

VTAQIGIVAV (also called OR51E2-001) [VTAQIGIVAV (SEQ ID No. 1)] and SMLGEEIQL (also called GREB-001) [SMLGEEIQL (SEQ ID No. 2)] cannot be ordered by peptide exchange yield: ≥ 75% for the first, ≥ 75% for the second.

HLLEDIAHV (also called NEFH-001) [HLLEDIAHV (SEQ ID No. 3)] and ALLTFVWKL (also called TRPM8-002) [ALLTFVWKL (SEQ ID No. 4)] cannot be ordered by peptide exchange yield: ≥ 75% for the first, ≥ 75% for the second.

KIFSRLIYI (also called TRPM8-003) [KIFSRLIYI (SEQ ID No. 5)] and ALLESRVNL (also called PDE11-001) [ALLESRVNL (SEQ ID No. 6)] cannot be ordered by peptide exchange yield: 50 to 75% for the first, ≥ 75% for the second.

First: TLLQVVGVVSV [TLLQVVGVVSV (SEQ ID No. 7)]
Second: GMLNEAEGKAIKL [GMLNEAEGKAIKL (SEQ ID No. 9)]
The peptide exchange yield of the first is lower: 20 to 50% for the first, 50 to 75% for the second.

First: TLWRGPVVV [TLWRGPVVV (SEQ ID No. 10)]
Second: YLEEECPAT [YLEEECPAT (SEQ ID No. 11)]
The peptide exchange yield of the first is higher: 50 to 75% for the first, 20 to 50% for the second.

Compared with AMAPNHAVV [AMAPNHAVV (SEQ ID No. 13)], KMDEASAQLL [KMDEASAQLL (SEQ ID No. 14)] is lower in peptide exchange yield: 50 to 75% for the first, 20 to 50% for the second.

KMDEASAQLLA [KMDEASAQLLA (SEQ ID No. 15)] and KMDEASAQL [KMDEASAQL (SEQ ID No. 16)] fall in the same range of peptide exchange yield: 50 to 75% for the first, 50 to 75% for the second.

Compared with SLLSHQVLL [SLLSHQVLL (SEQ ID No. 20)], YLNDSLRHV [YLNDSLRHV (SEQ ID No. 21)] is lower in peptide exchange yield: 50 to 75% for the first, 20 to 50% for the second.

SLYDSIAFI [SLYDSIAFI (SEQ ID No. 22)] and SLFHPEDTGQV (also called KLK3-004) [SLFHPEDTGQV (SEQ ID No. 49)] cannot be ordered by peptide exchange yield: ≥ 75% for the first, 50 to 75% for the second.

ALGDLVQSV [ALGDLVQSV (SEQ ID No. 52)] and YLLKDKGEYTL [YLLKDKGEYTL (SEQ ID No. 53)] fall in the same range of peptide exchange yield: 50 to 75% for the first, 50 to 75% for the second.
